Source: patent US20220204581A1, “MONOMERIC PEPTIDE MULTI-AGONIST […] THE GLP1 RECEPTOR AND NPY RECEPTORS” (SYRACUSE UNIVERSITY, published 2022)
Like-named read-outs stand apart in the source and are kept apart here. Where no end group is shown, it is not given here. The star is where a group is joined. azido = [N-]=[N+]=N*

Key:
[1] = target: T1, human NPY1-R (human, UniProt P25929)
[2] = target: T1, human NPY1-R; remark: listed apart in the source
[3] = target: T2, human NPY2-R (human, UniProt P49146); experiment: cell-based or functional assay
T2 sequence: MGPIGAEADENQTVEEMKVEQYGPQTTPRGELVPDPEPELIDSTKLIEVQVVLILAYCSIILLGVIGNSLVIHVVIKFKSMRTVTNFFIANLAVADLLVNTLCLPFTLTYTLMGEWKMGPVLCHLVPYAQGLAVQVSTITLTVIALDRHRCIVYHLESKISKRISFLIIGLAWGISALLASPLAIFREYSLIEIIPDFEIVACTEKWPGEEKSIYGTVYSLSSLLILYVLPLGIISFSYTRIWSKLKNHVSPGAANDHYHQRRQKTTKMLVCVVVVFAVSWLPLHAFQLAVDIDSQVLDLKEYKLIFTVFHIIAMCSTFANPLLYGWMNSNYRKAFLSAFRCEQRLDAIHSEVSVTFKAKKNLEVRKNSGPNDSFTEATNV

[4] = target: T3, human GLP-1R (human, UniProt P43220); experiment: cell-based or functional assay
[5] = target: T1, human NPY1-R; experiment: cell-based or functional assay
[6] = target: T1, human NPY1-R; experiment: cell-based or functional assay; remark: listed apart in the source
[7] = target: T3, human GLP-1R; experiment: cell-based or functional assay; remark: listed apart in the source

With PYY1-36 (ligand) the EC50 (agonism of the Y1-R) [1] was 42 nM and the EC50 Y1R [2] was 12 nM.

In the case of HGEGTFTSDLSKQMEEEAVRLFIEWLKNGGPSSTRQRY (C-terminal amidation; K12-azido modification) [EP38], the “EC50 Y2R” value [3] is reported as greater than 300 nM and the “EC50 GLP1R” value [4] is reported as 0.08 nM.

HSQGTFTSDLSK(azido)QINEEEAVRLFIEWLKNGGPSRHYLNLVTRQRY-NH2 [EP44] was tested, and the “EC50 Y1R” value [5] was greater than 100 nM.

For HSQGTFTSDLSK(azido)YLEEEAVREFIAWLKNGGPSRHYLNLVTRQRY-NH2 [GEP44], the “EC50 Y1R” value [5] was 24 nM, the “EC50 Y2R” value [3] was 10 nM and the “EC50 GLP1R” value [4] was 0.33 nM. For the same molecule, the “EC50 (agonism of the Y1-R)” value [6] was 83 nM and the EC50 [7] was 300000 nM.
